In the supplement of paper PMC6755084:

B1: minF1; the commonest letter at each place (parent)
chain: GAGACCGCAACTGAAAAGTTGTTATCAGAAATGGATGGGTTGAATTTCTGCACGTAGAAGCAAAAGGC

Variants of: B1
Assay: fraction ligated after 30 min (ligated reads / total reads); higher = more ligase activity
Settings: with F1*subA RNA substrate (template-directed ligation), 42 °C
In short: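 Templates from an oligo pool encoding minimized ligase ribozyme variants were amplified by PCR, transcribed with T7, and purified on gels. Gel electrophoresis separated ligated from unligated RNAs, which were then reverse transcribed using barcoded primers and sequenced on a MiSeq, keeping core bases with quality ≥30. For each variant, fraction ligated equals ligated reads divided by total reads.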

Variant | fraction ligated
G34A G42A | 0.0111
G34A G42C | 0.00302
G34A G42T | 0.00582
A30C G33T | 0.435
A30C G33A | 0.773
A30C G33C | 0.684
G33A A35T | 0.0202
G33A A35G | 0.265
G33A A35C | 0.026
G33A G34A | 0.334
G33A G34C | 0.00342
G33A G34T | 0.00656
A31C G33A | 0.767
A31C G33T | 0.355
A31C G33C | 0.653
T32G G37T | 0.00459
T32G G37C | 0.0035
T32G G37A | 0.00205
T32G | 0.02
T32A | 0.0612
T32C | 0.0302
A30G T36C | 0.0152
A30G T36G | 0.0634
A30G T36A | 0.0286

Variant | fraction ligated
A31T T36A | 0.0236
A31T T36G | 0.0351
A31T T36C | 0.0101
A31T | 0.815
A31G | 0.805
A31C | 0.813
T32C A43C | 0.00725
T32C A43G | 0.0128
T32C A43T | 0.00881
G34A A35G | 0.00813
G34A A35C | 0.00719
G34A A35T | 0.0147
T32A G42T | 0.00743
T32A G42C | 0.00255
T32A G42A | 0.00239
A31G G37T | 0.0111
A31G G37A | 0.00669
A31G G37C | 0.00462
A31C T32G | 0.0132
A31C T32C | 0.0181
A31C T32A | 0.0431
A30G G34C | 0.00227
A30G G34T | 0.00265
A30G G34A | 0.0439

Variant | fraction ligated
G33A G37T | 0.0175
G33A G37C | 0.00669
G33A G37A | 0.00769
A30T A44G | 0.68
A30T A44C | 0.52
A30T A44T | 0.693
A31C G42A | 0.279
A31C G42T | 0.0885
A31C G42C | 0.00681
A30C T32G | 0.019
A30C T32A | 0.0274
A30C T32C | 0.00933
G33T A44C | 0.149
G33T A44G | 0.249
G33T A44T | 0.299
T32A A35C | 0.00546
T32A A35T | 0.00186
T32A A35G | 0.0076
T32G G42C | 0.00582
T32G G42T | 0.00243
T32G G42A | 0.00352
A30G G42C | 0.0189
A30G G42T | 0.215
A30G G42A | 0.487

Variant | fraction ligated
T32C G37A | 0.00241
T32C G37T | 0.00216
T32C G37C | 0.00446
A30T A31G | 0.785
A30T A31T | 0.818
A30T A31C | 0.801
T32A G34C | 0.0031
T32A G34T | 0.00436
T32A G34A | 0.00575
A31G A35C | 0.022
A31G A35T | 0.0156
A31G A35G | 0.294
G33C T36C | 0.00989
G33C T36G | 0.0305
G33C T36A | 0.0174
T32G A43G | 0.196
T32G A43T | 0.0529
T32G A43C | 0.00832
G34A G37C | 0.00312
G34A G37T | 0.00793
G34A G37A | 0.00394
A31C G37T | 0.0153
A31C G37C | 0.00598
A31C G37A | 0.0105

Variant | fraction ligated
G33C G34A | 0.18
G33C G34T | 0.00568
G33C G34C | 0.00483
A31T T32G | 0.0242
A31T T32A | 0.0898
A31T T32C | 0.0483
A31T A43G | 0.157
A31T A43C | 0.157
A31T A43T | 0.215
A30C G42C | 0.00724
A30C G42T | 0.0701
A30C G42A | 0.217
G34C | 0.00469
G34A | 0.0464
G33A T36C | 0.0229
G33A T36G | 0.0572
G33A T36A | 0.0257
A31T A35G | 0.339
A31T A35C | 0.0159
A31T A35T | 0.0356
A30T T36G | 0.0328
A30T T36A | 0.0264
A30T T36C | 0.0213
A31T G42A | 0.495

Variant | fraction ligated
A31T G42C | 0.0234
A31T G42T | 0.193
A30T G42T | 0.0705
A30T G42C | 0.00805
A30T G42A | 0.202
T32C T36C | 0.00318
T32C T36A | 0.00145
T32C T36G | 0.00825
G33T G42T | 0.0256
G33T G42A | 0.0913
G33T G42C | 0.0103
A30T A35T | 0.0204
A30T A35C | 0.0121
A30T A35G | 0.161
A31C A35T | 0.0132
A31C A35C | 0.0149
A31C A35G | 0.199
A31G G34T | 0.00852
A31G G34C | 0.00824
A31G G34A | 0.0934
G33C G42T | 0.0409
G33C G42C | 0.011
G33C G42A | 0.132
T32C G33A | 0.0169

Variant | fraction ligated
T32C G33T | 0.0247
T32C G33C | 0.0121
A30T A43C | 0.0532
A30T A43T | 0.0685
A30T A43G | 0.0459
A30C G37A | 0.009
A30C G37C | 0.00447
A30C G37T | 0.01
T32A T36C | 0.00204
T32A T36A | 0.00173
T32A T36G | 0.00433
T32C A44G | 0.0172
T32C A44T | 0.0253
T32C A44C | 0.0116
T32A A43G | 0.0134
T32A A43T | 0.0778
T32A A43C | 0.0118
A30T G37A | 0.00958
A30T G37C | 0.0041
A30T G37T | 0.0219
G33A G42T | 0.102
G33A G42C | 0.0145
G33A G42A | 0.228
T32G G34T | 0.00509

Variant | fraction ligated
T32G G34A | 0.0029
T32G G34C | 0.00552
G33T T36G | 0.0372
G33T T36C | 0.0104
G33T T36A | 0.0253
G33C | 0.804
G33T | 0.605
G33A | 0.817
A30T T32A | 0.0346
A30T T32C | 0.0167
A30T T32G | 0.0154
A30G A43T | 0.188
A30G A43G | 0.14
A30G A43C | 0.179
G34A T36G | 0.0395
G34A T36C | 0.0256
G34A T36A | 0.0315
A31G A43T | 0.168
A31G A43G | 0.101
A31G A43C | 0.142
G33C A35G | 0.0844
G33C A35C | 0.0133
G33C A35T | 0.0199
A31T G37A | 0.00615

Variant | fraction ligated
A31T G37T | 0.0157
A31T G37C | 0.00621
A31G G42C | 0.0118
A31G G42A | 0.367
A31G G42T | 0.126
G33T A43G | 0.0169
G33T A43C | 0.0254
G33T A43T | 0.0265
A30T G33A | 0.747
A30T G33C | 0.663
A30T G33T | 0.387
T32G A35G | 0.00546
T32G A35C | 0.00432
T32G A35T | 0.00401
A31T G33A | 0.755
A31T G33C | 0.689
A31T G33T | 0.467
A31G T32A | 0.073
A31G T32G | 0.0239
A31G T32C | 0.00833
G33T G34C | 0.00646
G33T G34T | 0.00514
G33T G34A | 0.051
A30G T32C | 0.0409

Variant | fraction ligated
A30G T32A | 0.108
A30G T32G | 0.0298
A31C A43C | 0.0314
A31C A43T | 0.0946
A31C A43G | 0.0644
A31C A44C | 0.655
A31C A44T | 0.794
A31C A44G | 0.754
T32G A44C | 0.067
T32G A44G | 0.0444
T32G A44T | 0.0536
A30G G37A | 0.00857
A30G G37C | 0.00443
A30G G37T | 0.0167
A31G T36G | 0.0415
A31G T36C | 0.0127
A31G T36A | 0.0331
G33C A44T | 0.598
G33C A44C | 0.383
G33C A44G | 0.497
A31C G34T | 0.00764
A31C G34A | 0.055
A31C G34C | 0.0027
G33A A44G | 0.576

Variant | fraction ligated
G33A A44T | 0.553
G33A A44C | 0.479
G34A A44G | 0.019
G34A A44C | 0.008
G34A A44T | 0.0265
G33C G37C | 0.00381
G33C G37A | 0.00724
G33C G37T | 0.01
G33A A43G | 0.0533
G33A A43T | 0.0914
G33A A43C | 0.0816
A31C T36C | 0.0114
A31C T36G | 0.0226
A31C T36A | 0.0194
T32C G34T | 0.00428
T32C G34C | 0.00341
T32C G34A | 0.00321
T32C A35T | 0.0031
T32C A35G | 0.00362
T32C A35C | 0.00582
T32G G33A | 0.0116
T32G G33C | 0.00893
T32G G33T | 0.0125
G34C A35T | 0.00667

Variant | fraction ligated
G34C A35G | 0.00539
G34C A35C | 0.00352
A30T G34C | 0.00584
A30T G34T | 0.00578
A30T G34A | 0.0989
A30G A31G | 0.84
A30G A31C | 0.777
A30G A31T | 0.836
A31T A44G | 0.82
A31T A44T | 0.814
A31T A44C | 0.745
A30T | 0.823
A30G | 0.807
T32A A44C | 0.0377
T32A A44T | 0.163
T32A A44G | 0.0595
T32C G42T | 0.0036
T32C G42A | 0.00418
T32C G42C | 0.00351
A30G G33T | 0.672
A30G G33C | 0.805
A30G G33A | 0.821
T32A G37T | 0.00279
T32A G37C | 0.00322

Variant | fraction ligated
T32A G37A | 0.000603
G33T G37T | 0.00922
G33T G37A | 0.00704
G33T G37C | 0.00397
A30C T36G | 0.0467
A30C T36A | 0.0266
A30C T36C | 0.0174
A31T G34A | 0.071
A31T G34T | 0.0067
A31T G34C | 0.00659
G33T A35C | 0.0181
G33T A35G | 0.0792
G33T A35T | 0.0191
A30C A44C | 0.565
A30C A44T | 0.703
A30C A44G | 0.686
A31G G33A | 0.811
A31G G33T | 0.567
A31G G33C | 0.765
T32A G33C | 0.0102
T32A G33T | 0.0384
T32A G33A | 0.032
G34A A43T | 0.00502
G34A A43G | 0.00716

Variant | fraction ligated
G34A A43C | 0.00464
A30G A44C | 0.735
A30G A44T | 0.809
A30G A44G | 0.833
G34C A43T | 0.0056
G34C A43G | 0.00118
G34C A43C | 0.00266
G33C A43T | 0.0544
G33C A43G | 0.0324
G33C A43C | 0.0394
A30G A35G | 0.4
A30G A35C | 0.0448
A30G A35T | 0.0595
A30C G34A | 0.0885
A30C G34T | 0.00409
A30C G34C | 0.00405
A31G A44C | 0.71
A31G A44G | 0.788
A31G A44T | 0.804
T32G T36A | 0.00414
T32G T36C | 0.00404
T32G T36G | 0.00871
